These results are taken from paper PMC11172107.

For the data set, the target named is T1, ArgR-His6 (Vibrio fluvialis 85003) (UniProt A0AAX2LJS0).
T1 sequence: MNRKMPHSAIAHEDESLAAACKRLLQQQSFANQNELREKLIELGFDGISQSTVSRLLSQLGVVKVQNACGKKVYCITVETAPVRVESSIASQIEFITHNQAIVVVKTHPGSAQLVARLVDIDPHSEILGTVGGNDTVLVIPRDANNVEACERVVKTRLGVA
Briefly: EMSA. The conditions noted are these: EMSA: 20 mM Tris/HCl pH 7.6, 50 mM KCl, 1 mM EDTA, 5% glycerol, 200 ng BSA, 500 ng dI-dC, 15 ng probe, 30 C 20 min; footprinting: 5.40 uM ArgR-His6, 40 uL …. On the technique in general: A gel shift assay detects complexes by their altered migration in electrophoresis.

Take “CCGCAGGCTCTTTAGAATTTCTTTAACGATGAAGTGAAATTCACTTTATCACCATGAATAACAATAAAAGTTTTCACCATATTTATTACAAGTCCTAAGCTTTATTCCACGAAATACGTTGCCATATTGAATAGTATTGCAATAAACGTTTTCTAAATGAGTGAATTGAGGTGTGGG (double strand) [arcD2 probe]”: the binding entry was “binds”.
